Experimental data taken from article PMC3829045.

Key:
mouse sFlt-1-Fc (mouse) = mouse sFlt-1-Fc (mouse) (UniProt P35969); assay: ELISA
VEGFR-2 (Homo sapiens) = VEGFR-2 (Homo sapiens) (UniProt P35968); conditions: cited from earlier work
Chain of UniProt P35968 (P35968 20-1356): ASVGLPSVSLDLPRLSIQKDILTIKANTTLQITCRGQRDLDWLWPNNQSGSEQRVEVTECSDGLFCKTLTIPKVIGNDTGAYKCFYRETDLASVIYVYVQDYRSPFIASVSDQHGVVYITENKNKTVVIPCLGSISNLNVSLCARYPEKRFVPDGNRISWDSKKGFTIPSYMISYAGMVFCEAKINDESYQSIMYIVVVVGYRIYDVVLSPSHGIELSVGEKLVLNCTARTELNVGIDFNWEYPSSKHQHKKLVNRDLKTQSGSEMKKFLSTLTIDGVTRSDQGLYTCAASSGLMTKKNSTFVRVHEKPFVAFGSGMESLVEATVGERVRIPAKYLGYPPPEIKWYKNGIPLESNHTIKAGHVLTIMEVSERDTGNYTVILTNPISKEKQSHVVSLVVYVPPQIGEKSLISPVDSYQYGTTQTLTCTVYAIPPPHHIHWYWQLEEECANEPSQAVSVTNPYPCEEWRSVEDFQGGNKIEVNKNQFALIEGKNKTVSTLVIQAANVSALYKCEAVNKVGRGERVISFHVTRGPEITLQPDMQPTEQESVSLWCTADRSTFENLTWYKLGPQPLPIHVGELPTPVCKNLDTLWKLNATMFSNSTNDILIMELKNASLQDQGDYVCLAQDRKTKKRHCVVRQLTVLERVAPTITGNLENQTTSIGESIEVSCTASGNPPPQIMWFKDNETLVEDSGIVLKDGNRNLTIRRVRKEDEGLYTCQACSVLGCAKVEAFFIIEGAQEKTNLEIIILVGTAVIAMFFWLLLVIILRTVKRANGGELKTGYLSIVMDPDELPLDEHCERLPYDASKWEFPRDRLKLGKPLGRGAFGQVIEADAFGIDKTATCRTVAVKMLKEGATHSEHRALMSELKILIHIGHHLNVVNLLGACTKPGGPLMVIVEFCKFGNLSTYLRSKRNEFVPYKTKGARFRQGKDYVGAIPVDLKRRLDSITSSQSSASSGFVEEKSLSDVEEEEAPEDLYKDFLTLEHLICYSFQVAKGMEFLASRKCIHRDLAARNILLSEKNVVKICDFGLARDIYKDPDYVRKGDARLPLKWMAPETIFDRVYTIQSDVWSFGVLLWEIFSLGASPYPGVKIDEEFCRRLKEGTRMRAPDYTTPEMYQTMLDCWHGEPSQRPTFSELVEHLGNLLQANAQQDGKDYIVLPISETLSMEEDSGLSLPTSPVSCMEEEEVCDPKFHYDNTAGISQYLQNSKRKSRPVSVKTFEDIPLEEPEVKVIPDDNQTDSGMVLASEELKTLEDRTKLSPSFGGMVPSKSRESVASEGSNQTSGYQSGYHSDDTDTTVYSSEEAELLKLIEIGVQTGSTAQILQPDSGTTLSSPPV

Chain of UniProt P35969 (P35969 23-758): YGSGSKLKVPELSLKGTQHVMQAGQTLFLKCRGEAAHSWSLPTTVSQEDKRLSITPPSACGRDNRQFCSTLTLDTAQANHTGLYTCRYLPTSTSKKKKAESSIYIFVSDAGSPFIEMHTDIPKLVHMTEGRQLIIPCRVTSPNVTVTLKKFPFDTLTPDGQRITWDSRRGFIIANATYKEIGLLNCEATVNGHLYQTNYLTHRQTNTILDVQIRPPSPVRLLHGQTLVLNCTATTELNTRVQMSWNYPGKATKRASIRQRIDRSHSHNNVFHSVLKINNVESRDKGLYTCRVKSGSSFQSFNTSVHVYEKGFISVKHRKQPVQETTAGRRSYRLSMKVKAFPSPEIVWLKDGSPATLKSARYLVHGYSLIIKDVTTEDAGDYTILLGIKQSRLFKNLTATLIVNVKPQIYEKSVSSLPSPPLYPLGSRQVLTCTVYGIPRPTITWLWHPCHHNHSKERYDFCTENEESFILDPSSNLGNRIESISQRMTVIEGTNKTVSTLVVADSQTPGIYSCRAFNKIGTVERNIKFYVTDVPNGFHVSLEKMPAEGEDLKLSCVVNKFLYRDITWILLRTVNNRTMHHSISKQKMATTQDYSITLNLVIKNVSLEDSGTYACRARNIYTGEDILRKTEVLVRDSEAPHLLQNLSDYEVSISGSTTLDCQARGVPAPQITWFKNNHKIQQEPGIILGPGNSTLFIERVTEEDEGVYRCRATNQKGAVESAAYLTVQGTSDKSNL

Substance	percent decrease of ELISA-detectable sFlt-1 when VEGF was co-expressed (mouse sFlt-1-Fc (mouse))	percent decrease of free sFlt-1 in plasma of co-treated mice (mouse sFlt-1-Fc (mouse))	Kd (VEGFR-2 (Homo sapiens))
VEGF165 (ligand)	70 to 80%	> 70%	–
VEGF (from UniProt P15692)	–	–	0.76 nM
